# B1: His-tagged but otherwise wild type Tim50 [yeast] / Tim23 [yeast (endogenous in yeast mitochondria)] (parent complex)
# chain 1: QKETKDDKPKSILTDDMLFKAGVDVDEKGQGKNEETSGEGGEDKNEPSSKSEKSRRKRQTSTDIKREKYANWFYIFSLSALTGTAIYMARDWEPQESEELKKDIDNGYTLSLMYKRFKARFNSMFTYFQEPPFPDLLPPPPPPPYQRPLTLVITLEDFLVHSEWSQKHGWRTAKRPGADYFLGYLSQYYEIVLFSSNYMMYSDKIAEKLDPIHAFVSYNLFKEHCVYKDGVHIKDLSKLNRDLSKVIIIDTDPNSYKLQPENAIPMEPWNGEADDKLVRLIPFLEYLATQQTKDVRPILNSFEDKKNLAEEFDHRVKKLKDKFYGDHKSGGNWAMTALGLGNSLGGSTKFPLDLIHEEGQKNYLMFMKMIEEEKEKIRIQQEQMGGQTFTLKDYVEGNLPSPEEQMKIQLEKQKEVDALFEEEKKKKKIAESK
# chain 2: MSWLFGDKTPTDDANAAVGGQDTTKPKELSLKQSLGFEPNINNIISGPGGMHVDTARLHPLAGLDKGVEYLDLEEEQLSSLEGSQGLIPSRGWTDDLCYGTGAVYLLGLGIGGFSGMMQGLQNIPPNSPGKLQLNTVLNHITKRGPFLGNNAGILALSYNIINSTIDALRGKHDTAGSIGAGALTGALFKSSKGLKPMGYSSAMVAAACAVWCSVKKRLLEK
# Variants of: B1
# Assay: pull-down (Ni-NTA agarose beads), immunoblot quantification; T, 10% of total material. B, 100% of bound material.; parent: 100; read off a plot
row,Variant,percent of parent
1,"chain 1 D235V, chain 1 R296S",~12%
2,chain 1 D235V,~37%
3,chain 1 R296S,~115%

# Source: PMC6375917 (2019)
